Values joined by “and” are separate entries in the source; they are usually repeats but may differ in a detail not shown here. Identical values can stand only once.
Legend:
[1] = molecular target: Gab1 G1 peptide (Homo sapiens); test: ITC
[2] = molecular target: Gab1 G2 peptide (Homo sapiens); test: ITC

| Binder | Kd [1] | Kd [2] |
| --- | --- | --- |
| Grb2 cSH3, P62993 (protein) QQPTYVQALFDFDPQEDGELGFRRGDFIHVMANSDPNWWKGACHGQTGMFPRNYVTPVNR | 171 µM |  |
| Grb2 cSH3, P62993 (protein) QQPTYVQALFDFDPQEDGELGFRRGDFIHVMDNSDPNWWKGACHGQTGMFPRNYVTPVNR | 200 µM and 152 µM and 50 µM | 42 µM |
| Grb2 cSH3, P62993 (protein) QQPTYVQALFDFDPQADGELGFRRGDFIHVMDNSDPNWWKGACHGQTGMFPRNYVTPVNR | 444 µM | 158 µM |

Source: PMC3116947
